Legend:
Assay in all cases: competition ELISA, antibody preincubated with target, AMH-coated plate
[1] = target: T1, AMH truncated antigen 21-35 (human)
T1 peptide: GTEALRAEEPAVGTS
Description: (§1) 1. AMH antigen was diluted with carbonic acid buffer (20 mmol/L CB, pH 9.6) and then coated on a polyvinyl chloride plate. In the pretreatment, the antibody purified by the protein A column and the synthesized AMH truncated antigen sequences (see Table 3 for each synthetic sequence) were subjected to proportion incubation (100 ng/ml antibody: 50 ug/ml truncated antigen) for 30 minutes, that were test samples; the control sample was 100 ng/ml antibody: PBS, incubation for 30 minutes, and then the test samples after incubation and the control sample were added to AMH antigen plate and incubated for 30 minutes, the plate was washed for 5 times, added with GAM-HRP (1/5000 dilution) and incubated for 30 minutes, the plate was washed for 5 times, and the substrate was added and incubated for 15 minutes. The values under wavelength of 450/620 were read by microplate reader, and the detected OD values were finally calculated and analyzed. The calculation formula was: (control sample OD value−test sample OD value)/control sample OD value, and the criterion for determination was as follows: more than 90%, which indicated a good competitive effect, showing that the antibody should recognize the epitope.

[2] = target: T2, AMH truncated antigen 31-45 (human)
T2 peptide: AVGTSGLIFREDLDW
Description: as §1

[3] = target: T3, AMH truncated antigen 51-65 (human)
T3 peptide: QEPLCLVALGGDSNG
Description: as §1

[4] = target: T4, AMH truncated antigen 71-85 (human)
T4 peptide: RVVGALSAYEQAFLG
Description: as §1

[5] = target: T5, AMH truncated antigen 31-41 (human)
T5 peptide: AVGTSGLIFRE
Description: as §1

[6] = target: T6, AMH truncated antigen 31-42 (human)
T6 peptide: AVGTSGLIFRED
Description: as §1

[7] = target: T7, AMH truncated antigen 31-43 (human)
T7 peptide: AVGTSGLIFREDL
Description: as §1

[8] = target: T8, AMH truncated antigen 32-41 (human)
T8 peptide: VGTSGLIFRE
Description: as §1

[9] = target: T9, AMH truncated antigen 33-41 (human)
T9 peptide: GTSGLIFRE
Description: as §1

[10] = target: T10, AMH truncated antigen 34-41 (human)
T10 peptide: TSGLIFRE
Description: as §1

[11] = target: T11, AMH truncated antigen 34-45 (human)
T11 peptide: TSGLIFREDLDW
Description: as §1

[12] = target: T12, AMH truncated antigen 35-45 (human)
T12 peptide: SGLIFREDLDW
Description: as §1

[13] = target: T13, AMH truncated antigen 36-45 (human)
T13 peptide: GLIFREDLDW
Description: as §1

[14] = target: T14, AMH truncated antigen 36-47 (human)
T14 construct: also called human AMH36-47; AMH3647-27 (Human)
T14 peptide: GLIFREDLDWPP
Description: as §1

[15] = target: T15, AMH truncated antigen 37-44 (human)
T15 construct: Printed with a blank (LIFR EDLD)
T15 peptide: LIFREDLD
Description: as §1

[16] = target: T16, AMH truncated antigen 37-45 (human)
T16 peptide: LIFREDLDW
Description: as §1

[17] = target: T17, AMH truncated antigen 38-45 (human)
T17 peptide: IFREDLDW
Description: as §1

[18] = target: T18, AMH truncated antigen 40-45 (human)
T18 peptide: REDLDW
Description: as §1

[19] = target: T19, AMH truncated antigen 40-46 (human)
T19 peptide: REDLDWP
Description: as §1

[20] = target: T20, AMH truncated antigen 40-47 (human)
T20 peptide: REDLDWPP
Description: as §1

[21] = target: T21, AMH truncated antigen 41-45 (human)
T21 peptide: EDLDW
Description: as §1

[22] = target: T22, AMH truncated antigen 41-46 (human)
T22 peptide: EDLDWP
Description: as §1

[23] = target: T23, AMH truncated antigen 41-48 (human)
T23 peptide: EDLDWPPG
Description: as §1

[24] = target: T24, AMH truncated antigen 41-49 (human)
T24 peptide: EDLDWPPGS
Description: as §1

[25] = target: T25, AMH truncated antigen 42-46 (human)
T25 peptide: DLDWP
Description: as §1

[26] = target: T26, AMH truncated antigen 42-47 (human)
T26 peptide: DLDWPP
Description: as §1

[27] = target: T27, AMH truncated antigen 42-48 (human)
T27 peptide: DLDWPPG
Description: as §1

[28] = target: T28, AMH truncated antigen 42-49 (human)
T28 peptide: DLDWPPGS
Description: as §1

[29] = target: T29, AMH truncated antigen 43-50 (human)
T29 peptide: LDWPPGSP
Description: as §1

[30] = target: T30, AMH truncated antigen 43-51 (human)
T30 peptide: LDWPPGSPQ
Description: as §1

percent inhibition [1]: 10%
percent inhibition [2]: 90%
percent inhibition [3]: 9%
percent inhibition [4]: 21%
percent inhibition [5]: 10%
percent inhibition [6]: 16%
percent inhibition [7]: 25%
percent inhibition [8]: 9%
percent inhibition [9]: 9%
percent inhibition [10]: 3%
percent inhibition [11]: 98%
percent inhibition [12]: 97%
percent inhibition [13]: 94%
percent inhibition [14]: 100%
percent inhibition [15]: 24%
percent inhibition [16]: 91%
percent inhibition [17]: 92%
percent inhibition [18]: -14%
percent inhibition [19]: -2%
percent inhibition [20]: -19%
percent inhibition [21]: 15%
percent inhibition [22]: 15%
percent inhibition [23]: -1%
percent inhibition [24]: 3%
percent inhibition [25]: -10%
percent inhibition [26]: 6%
percent inhibition [27]: 2%
percent inhibition [28]: -8%
percent inhibition [29]: 17%
percent inhibition [30]: -10%
B1: monoclonal antibody C9F2-2 (antibody, V domains shown)
VH: EVQLVESGGGLVKPGGSLKLSCAASGFAFSTYDMSWVRQTPEKRLEWVAYISPGGGATYYPDTVKGRFTISRDNAKNTLYLQMTSLKSEDTAMYYCAGRRDYYGMDYWGQGTSVTVSS
VL: DVVMTQTPLSLPVSLGDQASISCRSSQSLVHSNGNTYLHWYLQKPGQSPKLLIYKVSNRFSGVPDRFSGSGSGTDFTLKISRVEAEDLGVYFCSQSTHVPWTFGGGTKLEIK
notes: Mouse hybridoma antibody purified from ascites; the tie is indirect; also called hybridoma CCTCC NO: C2018183

From patent US20220146515A1 (XIAMEN INNODX BIOTECH, published 2022)
